The data set can be described thus: yeast display, Sf9 membrane polyspecificity reagent, FACS + sequencing; frameworks hold sequencing errors. In outline:
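After 36–48 hours of galactose induction, yeast (Saccharomyces cerevisiae BJ5465) displaying a synthetic nanobody library were stained at 4 °C for 1 hour with 10% biotinylated, detergent-solubilized Sf9 membrane reagent. Streptavidin microbeads enriched the stained cells before FACS sorting into low and high (top ~1%) gates on anti-HA and streptavidin fluorescence. Each clone's polyreactivity label reflects its gate of origin.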
For “QVQLVESGGGLVQAGGSLRLSCAASGSTFNKYTMGWYRQAPGKEREFVAAISRIGGSTYYADSVKGRFTISRDNAKNTVYLQMNSLKPEDTAVYYCATGVRPLRKKPVEFYHWGQGTQVTVSS”, the “polyreactivity (PSR sort gate)” value is “low polyreactivity”.
The result for “QVQLVESGGGLVQAGGSLRLSCAASGSTFNRNAMGWYRQAPGKERELVASISSGDNTKYADSVKGRFTISRDNAKNTVYLKMNSLKPEDTAVYYCNTVNKSLYAGLRKRWGGYYYWGQGTQVTVSS” reads “high polyreactivity”; that for “QVQLVESGGGLVQAGGSLRLSCAASGSTFNRYAMGWYRQAPGKERELVAAISGSGSSTYYADSVKGRFTISRDNAKNTVYLQMNSLKPEDTAVYYCAAVRYEYDYWGQGTQVTVSS”, “high polyreactivity”.
As to “QVQLVESGGGLVQAGGSLRLSCAASGSTFNRYAMGWYRQAPGKERELVAAISSRGGRTYYADSVKGRFTISRDNAKNTVYLQMNSLKPEDTAVYYCAADSSIDYDWGQGTQVTVSS”, the “polyreactivity (PSR sort gate)” value was “high polyreactivity”.
In the case of “QVQLVESGGGLVQAGGSLRLSCAASGSTFNRYAMGWYRQAPGKERELVAGISYSGTRTYYADSVKGRVTISRDNAKNTVYLQMNSLKPEDTAVYYCAAVYPGPYYARRRLFYWGQGTQVTVSS”, the “polyreactivity (PSR sort gate)” value is on record as “high polyreactivity”.
Take “QVQLVESGGGLVQAGGSLRLSCAASGSTFNSYAMGWYRQAPGKERELVAAISWSGGSTYYADSVKGRFTISRDNAKNTVYLQMNSLKPEDPAVYYCNADYWWEYAYGVDYWGQGTQVTVSS”: the “polyreactivity (PSR sort gate)” value is listed as “low polyreactivity”.
The same measure for “QVQLVESGGGLVQAGGSLRLSCAASGSTFNTYVMGWYRQAPGKERELVAAISSSGGTTYYADSVKGRFTISRDNAKNTVYLQMNSLKPEDTAVYYCNAVPKYGSRLYRYGYWGQGTQVTVSS”: “high polyreactivity”.
The same measure for “QVQLVESGGGLVQAGGSLRLSCAASGSTFNWNAMGWYRQAPGKERELVAAISRSGGRTSYADSVKGRFTISRDNAKNTVYLQMNSLKPEDTAVYYCAAEKVGTRPSRDYDYWGQGTQVTVSS”: “high polyreactivity”.
The result for “QVQLVESGGGLVQAGGSLRLSCAASGSTFNWNAMGWYRQAPGTERELVAAISKSGGTTYYADSVKGRFTISRDNAKNTVYFQMNSLKPEDTAVYYCAAVRRYHSYPDGGYWGQGTQVTVSS” reads “high polyreactivity”; that for “QVQLVESGGGLVQAGGSLRLSCAASGSTFNWYAMGWYRQAPGKERELVASIRISGGSTYYADSVKGRFTISRDNAKNTVYLQMNSLKPEDTAVYYCNAKLFIRWFTYDYLGQGTQVTVSS”, “low polyreactivity”.
Take “QVQLVESGGGLVQAGGSLRLSCAASGSTFNYNAMGWYRQAPGKERELVAAISSGASTNYADSVKGRFTISRDNAKNTVYLQMNSLKPEDTAVYYCAARSRTPGWYSTISRKMYWGQGTQVTVSS”: the “polyreactivity (PSR sort gate)” value is recorded as “high polyreactivity”.
The same measure for “QVQLVESGGGLVQAGGSLRLSCAASGSTFPANAMGWYRPAPGKERELVAAISSVGSTNYADSVKGRFTISRDNAKNTVYLQMNSLKPEDTAVYYCATQPTWYTVGDLDYWGQGTQVTVSS”: “low polyreactivity”; for “QVQLVESGGGLVQAGGSLRLSCAASGSTFPAYAMGWYRQAPGKERELVAGISSGGRTYYADSVKGRFTISRDNAKNTVYLQMNSLKPEDTWVYYCAAFRFYWQRPERYYYWGQGTQVTVSS”: “high polyreactivity”; for “QVQLVESGGGLVQAGGSLRLSCAASGSTFPDNAMGWYRQAPGKERELVAAISWSGGSTNYADSVKGRFTISRDNAKNTVYLQMNSLKPEDTAVYYCNADDASHYYFRDEYWGLGTQVTVSS”: “low polyreactivity”.
For the sequence “QVQLVESGGGLVQAGGSLRLSCAASGSTFPDNAMVWYRQAPGKEREFVATITWRGGRTNYADSVKGRFTISRDNAMNTVYLQMNSLKPEDTAFYYCDKVVRYARSNEYDTWGQGTQLTVSS”, the “polyreactivity (PSR sort gate)” value is “low polyreactivity”.
The result for “QVQLVESGGGLVQAGGSLRLSCAASGSTFPEYAMGWYRKAPGKERELVAAISKSGGRTYYADSVKGRFTISRDNAKNTVYLQMNSLNPEDTAVYYCARDSYPHGRARFDYWGQGTQVTVSS” reads “high polyreactivity”.
“QVQLVESGGGLVQAGGSLRLSCAASGSTFPEYAMGWYRQAPGKERELVADISSGGDTSYADSVKGRFTISRDNAKNTVYLQMNSLNPEDTAVYYCAAGTAGTTGSPKFSGYGYDYWGQGTQVTVSS”: the “polyreactivity (PSR sort gate)” value is “low polyreactivity”.
As for “QVQLVESGGGLVQAGGSLRLSCAASGSTFPFNAMGWYRQAPGKERELVAGIRSRGGSTYYADSVKGRFTISRDNAKNTVYLQMNSLIPEDTAVSSCAKVYKDRDDLFYYWGQGTQVTVSS”, the “polyreactivity (PSR sort gate)” value is given as “low polyreactivity”.
“QVQLVESGGGLVQAGGSLRLSCAASGSTFPFYAMGWYRQAPGKERELVAAITSGGSTYADSVKGRFTISRDNAKNTVYLQMNSLKPEDTAVYYCAASWPRWWRFGYWGQGTQVTVSS”: the “polyreactivity (PSR sort gate)” value was “low polyreactivity”.
The result for “QVQLVESGGGLVQAGGSLRLSCAASGSTFPFYDMGWYRQAPGKERELVAAIRSGGSTYADSVKGRFTISRDNAKNTVYLQMNSLKPEDTAVYYCAKRCPSNRYSRYRVKYDYWGQGSQVTVSS” reads “low polyreactivity”; that for “QVQLVESGGGLVQAGGSLRLSCAASGSTFPFYDMGWYRQAPGKERELVTAIRSGGSTYADSVKGRFTISRDNAKNTVYLQMNSLKPVDTAVYYCAKRCPSIRYSRYRVKYDYWGQGTQVTVSS”, “low polyreactivity”; that for “QVQLVESGGGLVQAGGSLRLSCAASGSTFPGYAMGWYRQAPGKERELVAAINGRGGSTYYADSVKGRFTISRDNAKNTVYLQMNSLKPEDSAVYYCAAFVGSRSAKYIKYWGQGTQVTVSS”, “high polyreactivity”.
For the sequence “QVQLVESGGGLVQAGGSLRLSCAASGSTFPGYAMGWYRQAPGKERELVAAISASGGSTYYADSVKGRFTISRDNAKNTVYLQMNSLKPEDTAVYYCAKVLSRGASAHDYWGQGTQVTVSS”, the “polyreactivity (PSR sort gate)” value is given as “low polyreactivity”.
Take “QVQLVESGGGLVQAGGSLRLSCAASGSTFPGYAMGWYRQAPGKERELVAAISTSGGRTYYADSVKGRFTISRDNAKNTVYLQMNSLKPEDTAVYYCAADASTWYTEEYWGQGTQVTVSS”: the “polyreactivity (PSR sort gate)” value was “low polyreactivity”.
Regarding “QVQLVESGGGLVQAGGSLRLSCAASGSTFPIYAMGWYRQAPGKERELVAAITHRDGSTYYADSVKGRFTISRDNAKNTVYLQMNSLKPEDTAVYYCAAETYVVWFTFDYWGQGTQVTVSS”, the “polyreactivity (PSR sort gate)” value is recorded as “high polyreactivity”.
In the case of “QVQLVESGGGLVQAGGSLRLSCAASGSTFPLYAMGWYRQAPGKERELVAAITGGGGRTYYADSVKGRFTISRDNAKNTVYLQMNSLKPEETAVYYCAASKQRYYRWWTTPGYDYWGQGTQVTVSS”, the “polyreactivity (PSR sort gate)” value is given as “low polyreactivity”.
The same measure for “QVQLVESGGGLVQAGGSLRLSCAASGSTFPPNAMGWYRPAPGKERELVAVISNGGSNTRYADSVKGRFTISRDNAKNTVYLQMNSLKPEDTAVYYCAADYEYSGYGYWGQGTQVTVSS”: “high polyreactivity”; for “QVQLVESGGGLVQAGGSLRLSCAASGSTFPPNAMGWYRQAPGKESELVAAISFSSGRTYYADSVKGRFTISRDNAKNTVYLQMNSLKPEDTAVYYCAADHGYWGQGTQVTVSS”: “low polyreactivity”.
The result for “QVQLVESGGGLVQAGGSLRLSCAASGSTFPQNAMGWTRQAPGKERELVAVISRSGGNPYYADSVKGRFTISRDIAKNSVYLQMNSLKPEDTAVYYCATRVKTTYDYWGQGTQVTVSS” reads “low polyreactivity”; that for “QVQLVESGGGLVQAGGSLRLSCAASGSTFPQYAMGWYRQAPGKERELVAAISRSGGSTYYADSVKGRFTISRDNAKNTVYLQMNSLKPEDTAVYYCNVKSGFWFYPTMDYWGQGTQVTVSS”, “high polyreactivity”; that for “QVQLVESGGGLVQAGGSLRLSCAASGSTFPRNAMGWSRQAPGKERELVAAISFRGSTTYYADSVKGRFTISRDNAKNTVYLQMNSLKPEDTAVYYCAADGGRQARTYSRYYWGQGTQVTVSS”, “high polyreactivity”.
The same measure for “QVQLVESGGGLVQAGGSLRLSCAASGSTFPRNAMGWYRQAPGKERELVAAISSGGSTYYADSVKWRFTISRDNAKNTVYLQMNSLKPEDTAVYYCAARLYWPIIVVDLYGYDYWGQGTQVTVSS”: “low polyreactivity”.
As for “QVQLVESGGGLVQAGGSLRLSCAASGSTFPRNAMGWYRQAPGKERELVATISTSGGSTYYADSVKGRFTISRDNAKNTVYLQMNSLKPEDTPVYYCAAVFWFRSLSGYIYDYWGQGTQVSVSS”, the “polyreactivity (PSR sort gate)” value is listed as “low polyreactivity”.
The same measure for “QVQLVESGGGLVQAGGSLRLSCAASGSTFPRNAMGWYRQAPGKERELVATITSSGGGTYYADSVKGRFTISRDNAKNTVYLQMNSLKPEDTAVYYCNAAGPAGDAFDYWGQGTQVTVSS”: “low polyreactivity”.
The result for “QVQLVESGGGLVQAGGSLRLSCAASGSTFPRNAMGWYRQAPGKEWELVAAISGRGVRTYYADSVKGRFTISSDNAKNTVNFQMYSLKPEDTAVYYCAASRGKGVGLAYDYWGQGTQVTVSS” reads “high polyreactivity”.
Take “QVQLVESGGGLVQAGGSLRLSCAASGSTFPRYALGWYRQAPGKERELVAAISRSGGSTYYADSVKGRFTISRDNAKNTVYLQMNSLKPEDTAVYYCAARYERGSYKYDYWGQGTQVTVSS”: the “polyreactivity (PSR sort gate)” value was “high polyreactivity”.
Regarding “QVQLVESGGGLVQAGGSLRLSCAASGSTFPRYAMGWYRQAPGKEREFVAVIWSGGSTYYADSVKGRFTISRDNAKNTVYLQMNSLKPEDTAVYYCAAEYHTLSKYSGYATHDYWGQGTQVTVSS”, the “polyreactivity (PSR sort gate)” value is “low polyreactivity”.
The same measure for “QVQLVESGGGLVQAGGSLRLSCAASGSTFPRYAMGWYRQAPGKERELVAAISKSGTITSYADSVKGRFTISRDNAKNTVYLQMNSLKPEDTAVYYCAKGRYWPYDYWGQGTQVTVSS”: “high polyreactivity”; for “QVQLVESGGGLVQAGGSLRLSCAASGSTFPSNAMGWYRQAPGKERELVAAITFRGGRTYYADSVKGRFTISRDNAKNTVYLQMNSLKPEDTAVYYCAAERWWYTVRGYGYWGQGTQVTVSS”: “high polyreactivity”.
In the case of “QVQLVESGGGLVQAGGSLRLSCAASGSTFPSYAMGWYRQAPGKERELVAAITNGGSTTYADSVKGRFTISRDNAKNTVYLQMNSLKPDDTAVYYCAARYYYYYYYIRRDYWGQGTQVTVSS”, the “polyreactivity (PSR sort gate)” value is listed as “low polyreactivity”.
For “QVQLVESGGGLVQAGGSLRLSCAASGSTFPVNTMGWYRQAPGKERELVAAITKNGANTYYADSVKGRFTISRDNAKNTVYLQMNSLKPEDTADYYCAARYVYGKSYSRWLVELDYWGQGTQVTVSS”, the “polyreactivity (PSR sort gate)” value is “low polyreactivity”.

The record behind these values is the nanobody polyreactivity screen of Harvey et al. (2022).
